Experimental data reported in patent US20210130494A1 (ALETA BIOTHERAPEUTICS, published 2021).

Key:
[1] = biological target: T1, Human BCMA Protein, Fc Tag (R&D Systems, Cat#193-BC-050) (human, UniProt Q02223 1-54); test: ELISA, plate-bound Human BCMA-Fc (FIG. 66A), anti-HIS-HRP
T1 construct: Bought reagent; also called Human BCMA-Fc; BCMA-Fc
T1 sequence (looked up): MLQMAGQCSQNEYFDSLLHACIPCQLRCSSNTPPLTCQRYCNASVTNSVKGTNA

[2] = biological target: T2, FMC63 CAR-Flag (construct #140) on transfected 293T cells; test: flow cytometry, 293T cells transfected with #140, supernatant or 5 ug/ml purified #151/#152, anti-mouse Fc gamma-PE
T2 construct: FMC63 VL-VH-Flag-CD28 linker/transmembrane/ICD-4-1BB ICD-CD3z ICD; also called anti-CD19 FMC63 CAR; CAR19
T2 sequence (chain, as listed by the source limits assumed): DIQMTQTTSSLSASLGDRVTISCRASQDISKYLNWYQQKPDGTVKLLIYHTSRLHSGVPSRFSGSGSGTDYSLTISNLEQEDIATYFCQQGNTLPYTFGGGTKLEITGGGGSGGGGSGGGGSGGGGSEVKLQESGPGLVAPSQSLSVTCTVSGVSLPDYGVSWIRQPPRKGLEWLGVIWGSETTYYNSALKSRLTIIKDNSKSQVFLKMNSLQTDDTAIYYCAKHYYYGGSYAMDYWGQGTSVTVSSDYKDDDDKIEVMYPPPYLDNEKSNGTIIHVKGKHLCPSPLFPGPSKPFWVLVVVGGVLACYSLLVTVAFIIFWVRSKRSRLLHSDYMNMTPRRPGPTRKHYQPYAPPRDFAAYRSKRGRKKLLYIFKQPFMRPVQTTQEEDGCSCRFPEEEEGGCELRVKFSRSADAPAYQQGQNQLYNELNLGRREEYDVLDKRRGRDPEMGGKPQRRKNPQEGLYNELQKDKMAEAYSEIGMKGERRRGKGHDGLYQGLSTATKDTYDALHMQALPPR

[3] = biological target: T3, CD20 on stable transfectant line 293-CD20 (UniProt P11836 1-297); test: flow cytometry, 293-CD20 cells, FMC63-PE
T3 construct: whole, on cells; also called CD20 expressing 293 cells
T3 sequence (looked up): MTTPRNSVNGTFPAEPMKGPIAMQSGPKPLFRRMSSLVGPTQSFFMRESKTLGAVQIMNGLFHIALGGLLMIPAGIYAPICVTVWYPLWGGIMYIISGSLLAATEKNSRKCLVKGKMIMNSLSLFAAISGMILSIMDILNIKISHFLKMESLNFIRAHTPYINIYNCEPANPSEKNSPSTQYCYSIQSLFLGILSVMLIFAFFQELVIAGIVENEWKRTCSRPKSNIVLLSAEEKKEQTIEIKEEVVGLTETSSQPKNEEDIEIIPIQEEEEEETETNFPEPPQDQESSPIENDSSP

[4] = biological target: T3, CD20 on stable transfectant line …; test: flow cytometry, 293-CD20 cells, FMC63-PE or anti-HIS-PE
[5] = biological target: T3, CD20 on stable transfectant line …; test: flow cytometry, 293-CD20 cells, 200 µl fusion protein, FMC63-PE

B1: CD19-D1+2-C11D5.3 scFv (VL/VH) (construct #91) (other)
chain: PEEPLVVKVEEGDNAVLQCLKGTSDGPTQQLTWSRESPLKPFLKLSLGLPGLGIHMRPLAIWLFIFNVSQQMGGFYLCQPGPPSEKAWQPGWTVNVEGSGELFRWNVSDLGGLGCGLKNRSSEGPSSPSGKLMSPKLYVWAKDRPEIWEGEPPCLPPRDSLNQSLSQDLTMAPGSTLWLSCGVPPDSVSRGPLSWTHVHPKGPKSLLSLELKDDRPARDMWVMETGLLLPRATAQDAGKYYCHRGNLTMSFHLEITARPGGGGSGGGGSGGGGSGGGGSDIVLTQSPPSLAMSLGKRATISCRASESVTILGSHLIHWYQQKPGQPPTLLIQLASNVQTGVPARFSGSGSRTDFTLTIDPVEEDDVAVYYCLQSRTIPRTFGGGTKLEIKGSTSGSGKPGSGEGSTKGQIQLVQSGPELKKPGETVKISCKASGYTFTDYSINWVKRAPGKGLKWMGWINTETREPAYAYDFRGRFAFSLETSASTAYLQINNLKYEDTATYFCALDYSYAMDYWGQGTSVTVSSGGGGSGGGGSGGGGSHHHHHH
notes: C-terminal His tag
binding result [1]: binds

B2: CD19-D1+2-C11D5.3 scFv (VH/VL) (construct #92) (other)
chain: PEEPLVVKVEEGDNAVLQCLKGTSDGPTQQLTWSRESPLKPFLKLSLGLPGLGIHMRPLAIWLFIFNVSQQMGGFYLCQPGPPSEKAWQPGWTVNVEGSGELFRWNVSDLGGLGCGLKNRSSEGPSSPSGKLMSPKLYVWAKDRPEIWEGEPPCLPPRDSLNQSLSQDLTMAPGSTLWLSCGVPPDSVSRGPLSWTHVHPKGPKSLLSLELKDDRPARDMWVMETGLLLPRATAQDAGKYYCHRGNLTMSFHLEITARPGGGGSGGGGSGGGGSGGGGSQIQLVQSGPELKKPGETVKISCKASGYTFTDYSINWVKRAPGKGLKWMGWINTETREPAYAYDFRGRFAFSLETSASTAYLQINNLKYEDTATYFCALDYSYAMDYWGQGTSVTVSSGSTSGSGKPGSGEGSTKGDIVLTQSPPSLAMSLGKRATISCRASESVTILGSHLIHWYQQKPGQPPTLLIQLASNVQTGVPARFSGSGSRTDFTLTIDPVEEDDVAVYYCLQSRTIPRTFGGGTKLEIKGGGGSGGGGSGGGGSHHHHHH
notes: C-terminal His tag
binding result [1]: binds

B3: C11D5.3 scFv (VH/VL) (construct #90) (scFv)
scFv: QIQLVQSGPELKKPGETVKISCKASGYTFTDYSINWVKRAPGKGLKWMGWINTETREPAYAYDFRGRFAFSLETSASTAYLQINNLKYEDTATYFCALDYSYAMDYWGQGTSVTVSSGSTSGSGKPGSGEGSTKGDIVLTQSPPSLAMSLGKRATISCRASESVTILGSHLIHWYQQKPGQPPTLLIQLASNVQTGVPARFSGSGSRTDFTLTIDPVEEDDVAVYYCLQSRTIPRTFGGGTKLEIKGGGGSGGGGSGGGGSHHHHHH
notes: C-terminal His tag
binding result [1]: binds

B4: anti-FMC63 antibody 136.20.1 (constructs #151/#152) (antibody, V domains shown)
VH: EVKLVESGGGLVQPGGSLKLSCAASGFDFSRYWMSWVRQAPGKGLEWIGEINLDSSTINYTPSLKDKFIISRDNAKNTLYLQMSKVRSEDTALYYCARRYDAMDYWGQGTSVTVSS
VL: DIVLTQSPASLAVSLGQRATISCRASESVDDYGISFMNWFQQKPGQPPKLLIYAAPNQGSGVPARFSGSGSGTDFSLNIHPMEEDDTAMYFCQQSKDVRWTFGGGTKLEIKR
notes: supernatant or purified protein (5 ug/ml); also called anti-FMC63 (anti-Id) antibody; secreted anti-FMC63 antibody
binding result [2]: binds

B5: C11D5.3 scFv (VL/VH) (construct #89) (scFv)
scFv: DIVLTQSPPSLAMSLGKRATISCRASESVTILGSHLIHWYQQKPGQPPTLLIQLASNVQTGVPARFSGSGSRTDFTLTIDPVEEDDVAVYYCLQSRTIPRTFGGGTKLEIKGSTSGSGKPGSGEGSTKGQIQLVQSGPELKKPGETVKISCKASGYTFTDYSINWVKRAPGKGLKWMGWINTETREPAYAYDFRGRFAFSLETSASTAYLQINNLKYEDTATYFCALDYSYAMDYWGQGTSVTVSSGGGGSGGGGSGGGGSHHHHHH
notes: C-terminal His tag
binding result [1]: binds

B6: CD19-D1+2-Leu16 scFv (VL/VH) (construct #85) (other)
chain: PEEPLVVKVEEGDNAVLQCLKGTSDGPTQQLTWSRESPLKPFLKLSLGLPGLGIHMRPLAIWLFIFNVSQQMGGFYLCQPGPPSEKAWQPGWTVNVEGSGELFRWNVSDLGGLGCGLKNRSSEGPSSPSGKLMSPKLYVWAKDRPEIWEGEPPCLPPRDSLNQSLSQDLTMAPGSTLWLSCGVPPDSVSRGPLSWTHVHPKGPKSLLSLELKDDRPARDMWVMETGLLLPRATAQDAGKYYCHRGNLTMSFHLEITARPGGGGSGGGGSGGGGSGGGGSDIELTQSPTILSASPGEKVTMTCRASSSVNYMDWYQKKPGSSPKPWIYATSNLASGVPARFSGSGSGTSYSLTISRVEAEDAATYYCQQWSFNPPTFGGGTKLEIKRGGGGSGGGGSGGGGSMAQVKLQESGAELVKPGASVKMSCKASGYTFTSYNMHWVKQTPGQGLEWIGAIYPGNGDTSYNQKFKGKATLTADKSSSTAYMQLSSLTSEDSADYYCARSNYYGSSYWFFDVWGQGTTVTVSSAAAHHHHHH
notes: C-terminal His tag
binding result [3]: no binding (tested: 200 µl)

B7: CD19-D1+2-Leu16 scFv (VH/VL) (construct #83) (other)
chain: PEEPLVVKVEEGDNAVLQCLKGTSDGPTQQLTWSRESPLKPFLKLSLGLPGLGIHMRPLAIWLFIFNVSQQMGGFYLCQPGPPSEKAWQPGWTVNVEGSGELFRWNVSDLGGLGCGLKNRSSEGPSSPSGKLMSPKLYVWAKDRPEIWEGEPPCLPPRDSLNQSLSQDLTMAPGSTLWLSCGVPPDSVSRGPLSWTHVHPKGPKSLLSLELKDDRPARDMWVMETGLLLPRATAQDAGKYYCHRGNLTMSFHLEITARPGGGGSGGGGSGGGGSGGGGSMAQVKLQESGAELVKPGASVKMSCKASGYTFTSYNMHWVKQTPGQGLEWIGAIYPGNGDTSYNQKFKGKATLTADKSSSTAYMQLSSLTSEDSADYYCARSNYYGSSYWFFDVWGQGTTVTVSSGGGGSGGGGSGGGGSDIELTQSPTILSASPGEKVTMTCRASSSVNYMDWYQKKPGSSPKPWIYATSNLASGVPARFSGSGSGTSYSLTISRVEAEDAATYYCQQWSFNPPTFGGGTKLEIKRAAAHHHHHH
notes: C-terminal His tag
binding result [4]: binds

B8: CD19-ECD-Leu16 scFv (VH/VL) (construct #63) (other)
chain: PEEPLVVKVEEGDNAVLQCLKGTSDGPTQQLTWSRESPLKPFLKLSLGLPGLGIHMRPLAIWLFIFNVSQQMGGFYLCQPGPPSEKAWQPGWTVNVEGSGELFRWNVSDLGGLGCGLKNRSSEGPSSPSGKLMSPKLYVWAKDRPEIWEGEPPCLPPRDSLNQSLSQDLTMAPGSTLWLSCGVPPDSVSRGPLSWTHVHPKGPKSLLSLELKDDRPARDMWVMETGLLLPRATAQDAGKYYCHRGNLTMSFHLEITARPVLWHWLLRTGGWKGGGGSGGGGSGGGGSGGGGSEVQLQQSGAELVKPGASVKMSCKASGYTFTSYNMHWVKQTPGQGLEWIGAIYPGNGDTSYNQKFKGKATLTADKSSSTAYMQLSSLTSEDSADYYCARSNYYGSSYWFFDVWGAGTTVTVSSGSTSGGGSGGGSGGGGSSDIVLTQSPAILSASPGEKVTMTCRASSSVNYMDWYQKKPGSSPKPWIYATSNLASGVPARFSGSGSGTSYSLTISRVEAEDAATYYCQQWSFNPPTFGGGTKLEIKHHHHHH
notes: C-terminal His tag; also called CD19 full-length extracellular domain-anti-CD20 Leu16 scFv VH-VL-His fusion protein
binding result [5]: binds
